{"source": "paper doi:10.1101/2022.09.25.509378", "key": {"[1]": {"molecular_target": "bacteriophage λ terminase protomer (TerL•TerS2) (bacteriophage λ) (UniProt P03708)", "test": "cryo-EM 2D class averages"}, "[2]": {"molecular_target": "bacteriophage λ terminase protomer (TerL•TerS2) (bacteriophage λ) (UniProt P03708)", "test": "AUC"}, "[3]": {"molecular_target": "bacteriophage λ terminase protomer (TerL•TerS2) (bacteriophage λ) (UniProt P03708)", "test": "SAXS"}, "[4]": {"molecular_target": "bacteriophage λ terminase protomer (TerL•TerS2) (bacteriophage λ) (UniProt P03708)", "test": "AUC", "remark": "listed apart in the source"}, "[5]": {"molecular_target": "bacteriophage λ terminase protomer (TerL•TerS2) (bacteriophage λ) (UniProt P03708)", "test": "native MS"}}, "data": [{"substance": "bacteriophage λ terminase protomer (TerL•TerS2) (from UniProt P03708 1-641; P03707 1-181) (complex)", "values": [{"measurement": "stoichiometry N", "setting": "[1]", "result": 5}, {"measurement": "stoichiometry N", "setting": "[2]", "result": 4.5, "unit": "S"}, {"measurement": "stoichiometry N", "setting": "[3]", "result": 4.4, "unit": "protomers"}, {"measurement": "stoichiometry N", "setting": "[4]", "result": "3.3 to 4.4", "unit": "protomers"}, {"measurement": "stoichiometry N", "setting": "[5]", "result": 5, "unit": "protomers"}]}]}
